Results from article PMC5748987 (The Journal of Cell Biology, 2018).

B3: xAurA (cleaved from mCherry-xAurA) (enzyme)
chain: MERAVKENHKPSNVKIFHPMTEGAKRIPVNQPQSTQFRPPGTAVSAQRILGPSNVPQRVLAQAQKPILSSQKPTTQIPLRPATQGHQSSKPQGPNENRNPQQTSHSSTPNVEKKGSTDQGKTSAVPKEEGKKKQWCLEDFEIGRPLGKGKFGNVYLARERESKFILALKVLFKSQLEKAGVEHQLRREVEIQSHLRHPNILRLYGYFHDASRVYLILDYAPGGELFRELQKCTRFDDQRSAMYIKQLAEALLYCHSKKVIHRDIKPENLLLGSNGELKIADFGWSVHAPSSRRTTLCGTLDYLPPEMIEGRMHDETVDLWSLGVLCYEFLVGKPPFETDTHQETYRRISKVEFQYPPYVSEEARDLVSKLLKHNPNHRLPLKGVLEHPWIIKNSQLKKKDEPLPGAQ

Assays:
YFP-xBuGZ (full length) [1] = biological target: T1, YFP-xBuGZ (full length) (Xenopus laevis, UniProt Q7ZXV8 1-452); test: pull-down
T1 sequence (Q7ZXV8 whole entry): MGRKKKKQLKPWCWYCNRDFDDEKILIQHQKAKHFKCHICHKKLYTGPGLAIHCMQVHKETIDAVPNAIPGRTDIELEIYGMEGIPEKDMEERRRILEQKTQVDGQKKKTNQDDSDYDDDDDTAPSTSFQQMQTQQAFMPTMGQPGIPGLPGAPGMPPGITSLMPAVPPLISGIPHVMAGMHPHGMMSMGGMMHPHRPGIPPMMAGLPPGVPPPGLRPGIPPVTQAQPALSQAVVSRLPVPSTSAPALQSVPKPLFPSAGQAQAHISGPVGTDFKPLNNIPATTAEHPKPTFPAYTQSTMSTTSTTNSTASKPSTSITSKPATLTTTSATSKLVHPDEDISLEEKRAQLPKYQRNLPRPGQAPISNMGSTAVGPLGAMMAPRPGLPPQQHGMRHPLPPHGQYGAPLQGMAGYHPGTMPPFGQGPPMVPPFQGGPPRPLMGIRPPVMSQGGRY

YFP-xBuGZΔN7 = YFP-xBuGZΔN7 (Xenopus laevis, UniProt Q7ZXV8 8-452); test: pull-down
Chain of YFP-xBuGZΔN7 (Q7ZXV8 8-452, stated change not applied): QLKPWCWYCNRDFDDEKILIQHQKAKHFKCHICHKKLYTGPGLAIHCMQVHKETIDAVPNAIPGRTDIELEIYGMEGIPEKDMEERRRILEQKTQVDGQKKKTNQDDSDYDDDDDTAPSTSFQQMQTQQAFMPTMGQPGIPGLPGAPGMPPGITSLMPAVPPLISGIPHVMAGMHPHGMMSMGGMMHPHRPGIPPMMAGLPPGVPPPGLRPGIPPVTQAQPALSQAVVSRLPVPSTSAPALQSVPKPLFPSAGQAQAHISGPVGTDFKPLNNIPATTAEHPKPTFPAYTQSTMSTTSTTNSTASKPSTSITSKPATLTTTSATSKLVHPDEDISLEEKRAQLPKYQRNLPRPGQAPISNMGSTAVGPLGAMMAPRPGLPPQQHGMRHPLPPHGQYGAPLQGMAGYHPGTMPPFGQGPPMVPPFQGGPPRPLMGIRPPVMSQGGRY

YFP-xBuGZ (full length) [2] = biological target: T1, YFP-xBuGZ (full length); test: co-sedimentation
[3] = biological target: B3; test: pull-down

B1: GST-xAurA(127–407) (domain or fragment)
chain: KEEGKKKQWCLEDFEIGRPLGKGKFGNVYLARERESKFILALKVLFKSQLEKAGVEHQLRREVEIQSHLRHPNILRLYGYFHDASRVYLILDYAPGGELFRELQKCTRFDDQRSAMYIKQLAEALLYCHSKKVIHRDIKPENLLLGSNGELKIADFGWSVHAPSSRRTTLCGTLDYLPPEMIEGRMHDETVDLWSLGVLCYEFLVGKPPFETDTHQETYRRISKVEFQYPPYVSEEARDLVSKLLKHNPNHRLPLKGVLEHPWIIKNSQLKKKDEPLPGAQ
Does B1 bind (YFP-xBuGZ (full length) [1])?
Result: binds

B2: GST-xAurA (full length, amino acids 1–407) (enzyme)
chain: MERAVKENHKPSNVKIFHPMTEGAKRIPVNQPQSTQFRPPGTAVSAQRILGPSNVPQRVLAQAQKPILSSQKPTTQIPLRPATQGHQSSKPQGPNENRNPQQTSHSSTPNVEKKGSTDQGKTSAVPKEEGKKKQWCLEDFEIGRPLGKGKFGNVYLARERESKFILALKVLFKSQLEKAGVEHQLRREVEIQSHLRHPNILRLYGYFHDASRVYLILDYAPGGELFRELQKCTRFDDQRSAMYIKQLAEALLYCHSKKVIHRDIKPENLLLGSNGELKIADFGWSVHAPSSRRTTLCGTLDYLPPEMIEGRMHDETVDLWSLGVLCYEFLVGKPPFETDTHQETYRRISKVEFQYPPYVSEEARDLVSKLLKHNPNHRLPLKGVLEHPWIIKNSQLKKKDEPLPGAQ
Does B2 bind (YFP-xBuGZ (full length) [1])?
Result: binds

Does B3 bind (YFP-xBuGZΔN7)?
Result: binds

Does B3 bind (YFP-xBuGZ (full length) [2])?
Result: binds

B4: GST-xBuGZ(8–58) (domain or fragment)
chain: not shown
Does B4 bind [3]?
Result: binds
